Experimental data reported in the supplement of paper PMC12042874.
± gives the uncertainty stated by the source.

Experiment: amyloid nucleation score (Sup35N fusion, yeast selection) (log enrichment); library NNK2; higher = more nucleation; inactive = no reads after selection
Procedure, shortened: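 For the nucleation score, DiMSum gave the log enrichment of output over input reads, centred on the mode score of non-aggregating sequences. Psi-negative yeast expressing Sup35N fused to peptides of 20 random codons were induced with 100 μM copper sulfate for 24 hours and grown 7 days at 30°C on medium lacking adenine and uracil. Input and output plasmid inserts were Illumina-sequenced, and sequences with under 100 input reads were excluded.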

Row | Substance | amyloid nucleation score
1 | FIDPGHFTLDLGCSPPESEV | 4.5 ± 0.085
2 | HVIVMYGSIY | 3.19 ± 0.12
3 | PFQSNNSEVDGSYYMSVRC | -0.705 ± 0.39
4 | YIWYCRMPTSSNTVSNL | inactive
5 | EKRNVVVHLIGRWSTTLYWV | 1.25 ± 0.49
6 | DVIPRVMIKALT | 0.063 ± 0.56
7 | LGPTVYDFLHMCFYFRA | 4.74 ± 0.065
8 | AIMYFVTCMKILMFVGNYVQ | -0.118 ± 0.27
9 | GRSFFMF | 2.5 ± 0.091
10 | LLSFLMRSRRFLSTVKY | -0.931 ± 0.78
11 | YSKAAIFMESHFLASGNHKA | 4.67 ± 0.1
12 | GVLQTARRFPVPEGN | 3.71 ± 0.12
13 | EALMSSTIYYVPCSRHLIMF | -0.576 ± 0.63
14 | VEMRLGRDEIFNRHQKGIYA | 2.02 ± 0.36
15 | LFIDLEMLFSPRN | 5.471 ± 0.048
16 | TAAPSEVMPIMALRPPKESS | -0.541 ± 0.79
17 | SSWYHFDFGYCECGSNDGFV | 0.102 ± 0.79
18 | ISEFHGYSMFKHEARQNGCQ | 5.516 ± 0.033
19 | HVGFHQKVRSELCRA | 0.087 ± 0.51
20 | CMLDA | -0.555 ± 0.76
21 | ARVIFAVSVLEFRVGYSQGA | 3.87 ± 0.086
22 | GNMVFAPCDL | 1.07 ± 0.2
23 | IICTSSPQLIVYTSVRS | 7.08 ± 0.042
24 | MTCRRCNNAMWSGLLRLKIY | 2.97 ± 0.17
25 | MVSFGSGGELFFMHTQFSAR | -0.311 ± 0.64

Row | Substance | amyloid nucleation score
26 | VGVFNFAGTTTSVGVNVSYT | 2.78 ± 0.1
27 | LHIMVFQYLKWHTAI | -0.07 ± 0.49
28 | HVRVYHPGQMNCSRYNTMQ | 0.217 ± 0.65
29 | EAAYLVFSCVMCTFYFEFCF | 2.55 ± 0.089
30 | FCPRGFTLSSKFLCLNSLRM | -0.344 ± 0.33
31 | NPNELLLSSCFFHYLVKPWG | inactive
32 | MFRVARFSKAYDCTHFVING | 0.546 ± 0.8
33 | TKLEYNTE | 0.118 ± 0.77
34 | RYGRDGDRIIYNVCDFFFSG | 6.475 ± 0.047
35 | WIILGTSSAVWRTHDYLA | 3.43 ± 0.06
36 | FQDDDDPFFCVFAYFIGFFA | -0.983 ± 1.1
37 | DGLFGVTTWNSLFLWILKR | -1.1 ± 0.62
38 | HGGQEAVHLRRCGGYDMSKA | 0.451 ± 0.42
39 | LWFLYSAVTFTR | -0.856 ± 0.76
40 | IRRFRGLTSRSTRCSKGSKG | -0.072 ± 0.45
41 | QCYVIYS | 4.513 ± 0.029
42 | EPTMVRFDSLFVSDCYMSA | 0.499 ± 0.4
43 | RRWVG | 0.015 ± 0.45
44 | NRSDPDLCNKC | 1.96 ± 0.14
45 | VEFVVPKI | -0.586 ± 1.1
46 | GGWYDPGCSGGDIITDEVDW | -0.159 ± 0.55
47 | ILTFRVYPIPFDFYFGGLEL | 0.034 ± 1.1
48 | CILDI | -0.089 ± 1.1
49 | GPDLESFLRVIMQNFHDTKK | -1.54 ± 0.41
50 | IWHSVWYP | -0.318 ± 0.76

Row | Substance | amyloid nucleation score
51 | YQIAWI | -0.719 ± 0.46
52 | VSYYIRVYF | 5.648 ± 0.054
53 | DREWVYYCGYWECTMFRCIY | 1.12 ± 0.16
54 | LYRSVGFGIVEFDH | inactive
55 | LTVVV | 0.709 ± 0.66
56 | KSCSEV | -0.047 ± 0.35
57 | NGVLRDHWTMAQTCAGVECS | -0.403 ± 1.1
58 | GRFKITVTRYANVYSMLRVI | 1.02 ± 0.49
59 | VMFEFNLAGSDSSDKAAMVT | 0.014 ± 0.49
60 | QINSHNWYDG | 0.369 ± 0.8
61 | RSAYNY | -0.844 ± 0.4
62 | LFAYYGWVFYMSIRCVHMGM | -0.583 ± 1.1
63 | HRVSMKEGVEC | 0.256 ± 0.31
64 | NRSVCLYYFAQVYKCCSNAV | 3.42 ± 0.14
65 | RTSHSLRWMVRPYRRADPMR | 0.691 ± 0.54
66 | AALFDLRWTHHKYFPNVKSG | 0.057 ± 1.1
67 | VGHSIEALELTPIVVRYTYL | -0.341 ± 0.45
68 | HPMQLLTSAQIKG | 0.863 ± 0.41
69 | NQLRVLMTIFWPGMLNTPAV | 0.622 ± 0.31
70 | LLLGINSCQEQPKGSFEERH | -0.91 ± 1.1
71 | YRNVPRRMYRCVGISWS | 1.13 ± 0.11
72 | HSKGHILLTSNSNVFRLGRS | 0.166 ± 0.62
73 | YVLKVVIRRLRRSCVSCTWH | -0.109 ± 0.25
74 | HLLHVSGLDEIEMWTGDF | -0.332 ± 0.39
75 | SLVCM | -0.713 ± 0.29

Row | Substance | amyloid nucleation score
76 | MYRVLSIKWDRHLTRVHIAW | inactive
77 | YIYYNYKGLSVVFLSNSNMW | 2.88 ± 0.12
78 | GTSVIHISYFIYYPGDRVRR | 6.811 ± 0.052
79 | MKFKPDLVLFRYVHVKVYLE | -1.01 ± 1.1
80 | WSGWSQGDGLVQGQVMRAFV | -0.284 ± 0.79
81 | VSMIVGSDNVPVSFETDVSV | 1.01 ± 0.39
82 | LTRPCITV | 0.193 ± 0.55
83 | ACYIR | 1.02 ± 0.17
84 | IKGVRQHLTTYKGTL | -0.408 ± 0.49
85 | CNKTLLFIFPVLGQQDGDFG | 4.417 ± 0.044
86 | LRMSVVQLSVRESLLDNHDY | 1.78 ± 0.25
87 | LVISLSISCAGKRVAQSHMG | -0.951 ± 0.76
88 | LHQGKPYITLALYRFLHGSR | -1.15 ± 1.1
89 | SNVDVFVTKMWRATQSCFRL | 3.67 ± 0.12
90 | FFMLYYGYLLSVRDSCSLCI | -0.017 ± 0.76
91 | LILDILSRGSAYYDCTRMKG | inactive
92 | LISVDFRYYGYVVLGWISTL | 0.807 ± 0.1
93 | RLKYHWGGFEA | 0.767 ± 0.4
94 | YNYASYLVHIALLFLSYIRR | 0.236 ± 1.1
95 | SLSDYFGEWISA | -0.422 ± 1.1
96 | RSYIRFGNYVHYDQLWLFGG | 3.04 ± 0.12
97 | TGSWNGCVKWASRLKRAGGR | 0.643 ± 0.64
98 | LVWPTYVGDQAGSCVPGVFP | 4.51 ± 0.068
99 | KIFFKNDGAGSVWPSNKLYF | -1.29 ± 1
100 | NILWSNLGRMCRQLFAVFWS | -0.738 ± 0.62

Row | Substance | amyloid nucleation score
101 | CKSQLHLRVRTRKNVCVVIS | 0.13 ± 0.62
102 | NTMELLFIGVWIAFWLN | inactive
103 | AFVSYLCCGMYRVANSKSEG | 9.903 ± 0.058
104 | CFTKDMLSDNCVSV | -0.845 ± 1
105 | SFLIFRDVSFAGEGL | -1.21 ± 1.1
106 | ESIGVINCYWIWATSIPLEG | inactive
107 | RECNRNFQKSGSSEHETGLG | -0.844 ± 0.54
108 | LRNRMAERDLYLYAICSAGL | 0.331 ± 0.55
109 | FLLSISNRVDMFIFVLHHFT | inactive
110 | GFICPFVQLCVFRSRHRFEV | 0.676 ± 0.8
111 | SGNAGLFNRARGSVVTAVLV | 0.463 ± 0.64
112 | HGDMYRRQDVVSGSNE | 0.153 ± 0.49
113 | CGHVTMHRWGMKNIMLVYAV | -0.889 ± 1
114 | FFRGDVQYWRLILKYLCLLM | -1.28 ± 0.49
115 | FWEYEPLPPQQMSTFPD | -0.106 ± 0.79
116 | KLCKF | 3.27 ± 0.073
117 | TRWCYSDFPMVKLFLLKFIT | 0.416 ± 0.8
118 | LVDFNVLYNAGIIRLHTERY | 8.048 ± 0.07
119 | LRLLISV | 0.306 ± 0.25
120 | SSCPYYHGYNVRVMSCSHVI | 0.091 ± 0.4
121 | MDTSYMVLCYKSQRRRSGSR | 0.776 ± 0.2
122 | LNNRISNVAAGSSLRIYLMD | 2.79 ± 0.062
123 | SINYKALAS | inactive
124 | GDSPNNSYWIADSW | 2.75 ± 0.15
125 | ELTTIG | 1.62 ± 0.28

Row | Substance | amyloid nucleation score
126 | DIFITTSSFTLRCAYIIKGI | -1.44 ± 0.78
127 | SDPLSFGFGQMWIGVHNEFY | 2.2 ± 0.16
128 | FPWYCVGYVRSKRDRKVAWS | 0.04 ± 0.34
129 | CRMMI | 0.591 ± 0.36
130 | GYSYTLRDRCESRLTLRSDV | 0.382 ± 0.37
131 | HSLLSYMFSFQLTNMNCDLG | -0.117 ± 0.56
132 | MENLRNMAYSNC | -1.66 ± 0.61
133 | AYSIHPLNKGVKVSYRLAGH | 0.306 ± 0.2
134 | AWRDTHWTASCRSGSRRILS | 4.59 ± 0.046
135 | RDMLRQMNSYQEYLFVRLDN | -0.763 ± 1.1
136 | MSKDTVMPWERIKEVLHCLG | 0.342 ± 0.3
137 | RYIGGSLFFRYNIVGKRQGV | 3.81 ± 0.064
138 | SNESNFIVICVCMDCIRGGG | inactive
139 | CLGNHIDSCVVFLTDAESSS | -0.484 ± 0.65
140 | AARVIGWAFVDWFCLSKG | inactive
141 | ANLSRCVELMSRPQSVD | 1 ± 0.15
142 | GVRLDFYGNHFLWPAVSRGR | 3.63 ± 0.099
143 | ANKTVFVLEMVGVRGFYLMP | 2.66 ± 0.098
144 | AVVFGRGPSGYTHPMFRWPC | -0.754 ± 1.1
145 | NPYIINLFCYKIVRLGAIFT | 4.14 ± 0.068
146 | CNRESEWIECVRGFLEYANG | 1.44 ± 0.11
147 | YGKIL | -0.956 ± 1
148 | GKCWRVRASIFVGILFKIAG | 0.486 ± 0.8
149 | LYDIWEDGSITLFCYSYQHH | 8.969 ± 0.037
150 | NYIWVLGYSEVGNTIMYTYH | 6.224 ± 0.05

Row | Substance | amyloid nucleation score
151 | IVSIFSWTEIRATLG | -1.87 ± 0.55
152 | KSEKTHRIAMLNMSLVSYMR | 3.97 ± 0.053
153 | HGYHSGTLIALYVDN | inactive
154 | VSKKFIIVVRNREFSP | 4.43 ± 0.086
155 | CLQVAKDADFCIKAVEERGW | 2.42 ± 0.19
156 | WTYGVTRLSSLCSAIDLSLG | -0.598 ± 1.1
157 | IKTIADIYCISQSRIGSKLT | inactive
158 | WCIKANSMSRNVYVEEMGER | -0.143 ± 0.24
159 | KWGRCSIGT | inactive
160 | LLNILISRAYLWSGFFERFL | inactive
161 | GSTKFSRDERIAEGGNRGNK | -0.007 ± 0.3
162 | NCSSTIDFLFNLIHILKNF | inactive
163 | SNGCRRALL | inactive
164 | PLLSVVYTNLRSSDGRVV | 1.54 ± 0.31
165 | ELGHDYYSCCGFSAREYMEH | 4.56 ± 0.065
166 | RLLWLPLHSFMGMDTPSGVY | 0.448 ± 0.6
167 | YANERNTDFNNRWFLHGIKR | -1.34 ± 1.1
168 | ILEFKINPG | -1.05 ± 0.43
169 | RLWYSSSVLLV | 0.709 ± 0.36
170 | RFEYLFLEEYKLLAMRYLRT | -0.986 ± 0.3
